Experimental findings from article PMC6599478 (Mucosal immunology, 2019) are described below.

This assay deals with recombinant full length Tenascin-C, large isoform (TNC-L) (human, UniProt P24821 23-2201). Nature of the assay: ELISA. In general terms: ELISA stands for enzyme-linked immunosorbent assay.
Chain of recombinant full length Tenascin-C, large isoform (TNC-L) (P24821 23-2201): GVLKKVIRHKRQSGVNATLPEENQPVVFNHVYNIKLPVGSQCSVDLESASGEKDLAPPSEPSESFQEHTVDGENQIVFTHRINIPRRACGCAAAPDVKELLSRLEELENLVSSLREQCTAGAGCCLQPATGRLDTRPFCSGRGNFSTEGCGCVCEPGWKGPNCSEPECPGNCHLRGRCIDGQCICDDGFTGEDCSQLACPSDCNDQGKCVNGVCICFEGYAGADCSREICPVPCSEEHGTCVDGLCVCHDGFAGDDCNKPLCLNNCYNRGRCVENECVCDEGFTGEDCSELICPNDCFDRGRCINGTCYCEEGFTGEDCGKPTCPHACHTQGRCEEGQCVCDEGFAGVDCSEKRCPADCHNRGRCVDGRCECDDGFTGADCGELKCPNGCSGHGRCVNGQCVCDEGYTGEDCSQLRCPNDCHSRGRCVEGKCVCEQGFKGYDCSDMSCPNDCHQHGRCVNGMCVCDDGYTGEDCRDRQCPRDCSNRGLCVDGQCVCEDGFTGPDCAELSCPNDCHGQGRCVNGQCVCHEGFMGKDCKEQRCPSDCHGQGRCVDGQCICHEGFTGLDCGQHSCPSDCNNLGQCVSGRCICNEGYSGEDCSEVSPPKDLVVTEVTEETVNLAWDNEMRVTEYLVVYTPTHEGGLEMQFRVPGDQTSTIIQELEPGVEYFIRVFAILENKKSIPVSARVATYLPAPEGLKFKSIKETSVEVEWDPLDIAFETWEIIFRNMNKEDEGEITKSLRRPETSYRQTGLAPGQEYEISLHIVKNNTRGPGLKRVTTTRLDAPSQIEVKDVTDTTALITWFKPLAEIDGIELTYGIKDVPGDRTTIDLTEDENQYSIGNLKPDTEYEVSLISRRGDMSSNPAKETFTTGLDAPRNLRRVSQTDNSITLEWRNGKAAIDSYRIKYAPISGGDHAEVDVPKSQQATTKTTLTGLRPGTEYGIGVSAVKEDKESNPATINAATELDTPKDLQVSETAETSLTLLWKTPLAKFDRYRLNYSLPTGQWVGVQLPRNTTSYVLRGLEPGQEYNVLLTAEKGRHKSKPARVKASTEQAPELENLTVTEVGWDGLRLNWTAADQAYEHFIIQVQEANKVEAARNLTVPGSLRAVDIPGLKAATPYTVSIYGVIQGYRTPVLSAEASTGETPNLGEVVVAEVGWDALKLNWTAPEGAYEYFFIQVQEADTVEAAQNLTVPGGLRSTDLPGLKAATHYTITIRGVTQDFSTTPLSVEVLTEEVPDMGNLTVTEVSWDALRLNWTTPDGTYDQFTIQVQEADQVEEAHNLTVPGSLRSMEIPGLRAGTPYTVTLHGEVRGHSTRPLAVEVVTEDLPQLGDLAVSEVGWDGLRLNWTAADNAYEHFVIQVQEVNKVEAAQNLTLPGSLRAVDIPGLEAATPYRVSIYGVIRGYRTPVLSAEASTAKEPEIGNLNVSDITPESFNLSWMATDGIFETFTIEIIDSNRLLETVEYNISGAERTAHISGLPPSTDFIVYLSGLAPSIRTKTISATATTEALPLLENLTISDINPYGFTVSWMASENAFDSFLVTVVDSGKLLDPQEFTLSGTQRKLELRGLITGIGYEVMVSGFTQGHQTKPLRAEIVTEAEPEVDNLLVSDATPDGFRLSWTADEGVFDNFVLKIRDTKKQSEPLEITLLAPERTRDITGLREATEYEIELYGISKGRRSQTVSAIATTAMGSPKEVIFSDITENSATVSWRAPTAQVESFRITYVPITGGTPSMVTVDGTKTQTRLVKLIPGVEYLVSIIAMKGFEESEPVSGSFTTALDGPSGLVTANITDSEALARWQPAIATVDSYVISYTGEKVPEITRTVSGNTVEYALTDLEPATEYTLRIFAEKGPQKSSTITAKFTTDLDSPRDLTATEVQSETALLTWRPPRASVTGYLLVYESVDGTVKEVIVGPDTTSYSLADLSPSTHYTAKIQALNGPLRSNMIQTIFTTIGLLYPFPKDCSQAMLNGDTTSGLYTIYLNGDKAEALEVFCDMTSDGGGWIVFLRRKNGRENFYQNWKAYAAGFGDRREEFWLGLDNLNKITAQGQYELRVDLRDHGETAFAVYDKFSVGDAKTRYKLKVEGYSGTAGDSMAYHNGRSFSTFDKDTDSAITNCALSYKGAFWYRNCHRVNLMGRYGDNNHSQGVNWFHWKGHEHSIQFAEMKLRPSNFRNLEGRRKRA
Consider TRPNYNKRKRIHIGPGRAFYTTKNIIGTIRQAH [MN V3 complete V3 loop peptide (33 amino acid linear peptide, wild type)], for which the binding result was “binds”.
In the case of TRPNYNKRKRIHIGPGRAFYTTKNIIGAARQAH [MNV3 326/327 Mutant peptide (T326A/I327A)] it was “binds”; in that of TRPNYNKRKRIHIGPGRAFYTTAAIIGAARQAH [MNV3 Quad Mutant peptide (K321A/N322A/T326A/I327A)], “binds”.
In the case of TRPNYNKRKRIHIGPGRAFYTTAAIIGTIRQAH [MNV3 321/322 Mutant peptide (K321A/N322A)] it was “binds”.
